Source: publication PMC11098746 (2024)

B1: ADP318 (protein)
chain: MAGRLWPLLLSILTATAVPGPSLRRPSRELDATPRMTIPYEELSGTRHFKGQAQNYSTLLLEEASARLLVGARGALFSLSANDIGDGAHKEIHWEASPEMQSKCHQKGKNNQTECFNHVRFLQRLNSTHLYACGTHAFQPLCAAIDAEAFTLPTSFEEGKEKCPYDPARGFTGLIIDGGLYTATRYEFRSIPDIRRSRHPHSLRTEETPMHWLNDAEFVFSVLVRESKASAVGDDDKVYYFFTERATEEGSGSFTQSRSSHRVARVARVCKGDLGGKKILQKKWTSFLKARLICHIPLYETLRGVCSLDAETSSRTHFYAAFTLSTQWKTLEASAICRYDLAEIQAVFAGPYMEYQDGSRRWGRYEGGVPEPRPGSCITDSLRSQGYNSSQDLPSLVLDFVKLHPLMARPVVPTRGRPLLLKRNIRYTHLTGTPVTTPAGPTYDLLFLGTADGWIHKAVVLGSGMHIIEETQVFRESQSVENLVISLLQHSLYVGAPSGVIQLPLSSCSRYRSCYDCILARDPYCGWDPGTHACAAATTIANRTALIQDIERGNRGCESSRDTGPPPPLKTRSVLRGDDVLLPCDQPSNLARALWLLNGSMGLSDGQGGYRVGVDGLLVTDAQPEHSGNYGCYAEENGLRTLLASYSLTVRPATPAPAPKAPATPGAQLAPDVRL
modifications: bait human Fc-tagged dimer
B2: ADP098 (protein)
chain: RELPAQKWWHTGALYRIGDLQAFQGHGAGNLAGLKGRLDYLSSLKVKGLVLGPIHKNQKDDVAQTDLLQIDPNFGSKEDFDSLLQSAKKKSIRVILDLTPNYRGENSWFSTQVDTVATKVKDALEFWLQAGVDGFQVRDIENLKDASSFLAEWQNITKGFSEDRLLIAGTNSSDLQQILSLLESNKDLLLTSSYLSDSGSTGEHTKSLVTQYLNATGNRWCSWSLSQARLLTSFLPAQLLRLYQLMLFTLPGTPVFSYGDEIGLDAAALPGQPMEAPVMLWDESSFPDIPGAVSANMTVKGQSEDPGSLLSLFRRLSDQRSKERSLLHGDFHAFSAGPGLFSYIRHWDQNERFLVVLNFGDVGLSAGLQASDLPASASLPAKADLLLSTQPGREEGSPLELERLKLEPHEGLLLRFPYAA
modifications: bait human Fc-tagged dimer
B3: ADP107 (protein)
chain: MGTKAQVERKLLCLFILAILLCSLALGSVTVHSSEPEVRIPENNPVKLSCAYSGFSSPRVEWKFDQGDTTRLVCYNNKITASYEDRVTFLPTGITFKSVTREDTGTYTCMVSEEGGNSYGEVKVKLIVLVPPSKPTVNIPSSATIGNRAVLTCSEQDGSPPSEYTWFKDGIVMPTNPKSTRAFSNSSYVLNPTTGELVFDPLSASDTGEYSCEARNGYGTPMTSNAVRMEAVERNVGV
modifications: bait human Fc-tagged dimer
B4: ADP280 (protein)
chain: TPPNAIVFTYGHLKVADMVKTGVIMNIIGVFCVFLAVNTWGRAIFDLDHFPDWANVTHIET
modifications: also: human Fc-tagged dimer
B5: ADP307 (protein)
chain: MALSVPLLLGLLGLAVAEPAVYFKEQFLDGDGWTSRWIESKHKSDFGKFVLSSGKFYGDEEKDKGLQTSQDARFYALSASFEPFSNKGQTLVVQFTVKHEQNIDCGGGYVKLFPNSLDQTDMHGDSEYNIMFGPDICGPGTKKVHVIFNYKGKNVLINKDIRCKDDEFTHLYTLIVRPDNTYEVKIDNSQVESGSLEDDWDFLPPKKIKDPDASKPEDWDERAKIDDPTDSKPEDWDKPEHIPDPDAKKPEDWDEEMDGEWEPPVIQNPEYKGEWKPRQIDNPDYKGTWIHPEIDNPEYSPDPSIYAYDNFGVLGLDLWQVKSGTIFDNFLITNDEAYAEEFGNETWGVTKAAEKQMKDKQDEEQRLKEEEEDKKRKEEEEAEDKEDDEDKDEDEEDEEDKEEDEEEDVPGQAKDEL
modifications: bait human Fc-tagged dimer
B6: ADP380 (protein)
chain: VLEEVQQVRRSHQDFSRQREELGQGLQGVEQKVQSLQATFGTFESILRSSQHKQDLTEKAVKQGESEVSRISEVLQKLQNEILKDLSDGIHVVKDARERDFTSLENTVEERLTELTKSINDNIAIFTEVQKRSQKEINDMKAKVASLEESEGNKQDLKALKEAVKEIQTSAKSREWDMEALRSTLQTMESDIYTEVRELVSLKQEQQAFKEAADTERLALQALTEKLLRSEESVSRLPEEIRRLEEELRQLKSDSHGPKEDGGFRHSEAFEALQQKSQGLDSRLQHVEDGVLSMQVASARQTESLESLLSKSQEHEQRLAALQGRLEGLGSSEADQDGLASTVRSLGETQLVLYGDVEELKRSVGELPSTVESLQKVQEQVHTLLSQDQAQAARLPPQDFLDRLSSLDNLKASVSQVEADLKMLRTAVDSLVAYSVKIETNENNLESAKGLLDDLRNDLDRLFVKVEKIHEKV
modifications: bait human Fc-tagged dimer
B7: ADP339 (protein)
chain: MASPFLVLAIGTCLTNSLVPEKEKDPKYWRDQAQETLKYALELQKLNTNVAKNVIMFLGDGMGVSTVTAARILKGQLHHNPGEETRLEMDKFPFVALSKTYNTNAQVPDSAGTATAYLCGVKANEGTVGVSAATERSRCNTTQGNEVTSILRWAKDAGKSVGIVTTTRVNHATPSAAYAHSADRDWYSDNEMPPEALSQGCKDIAYQLMHNIRDIDVIMGGGRKYMYPKNKTDVEYESDEKARGTRLDGLDLVDTWKSFKPRYKHSHFIWNRTELLTLDPHNVDYLLGLFEPGDMQYELNRNNVTDPSLSEMVVVAIQILRKNPKGFFLLVEGGRIDHGHHEGKAKQALHEAVEMDRAIGQAGSLTSSEDTLTVVTADHSHVFTFGGYTPRGNSIFGLAPMLSDTDKKPFTAILYGNGPGYKVVGGERENVSMVDYAHNNYQAQSAVPLRHETHGGEDVAVFSKGPMAHLLHGVHEQNYVPHVMAYAACIGANLGHCAPASS
modifications: bait human Fc-tagged dimer
B8: ADP144 (protein)
chain: MELRARGWWLLCAAAALVACARGDPASKSRSCGEVRQIYGAKGFSLSDVPQAEISGEHLRICPQGYTCCTSEMEENLANRSHAELETALRDSSRVLQAMLATQLRSFDDHFQHLLNDSERTLQATFPGAFGELYTQNARAFRDLYSELRLYYRGANLHLEETLAEFWARLLERLFKQLHPQLLLPDDYLDCLGKQAEALRPFGEAPRELRLRATRAFVAARSFVQGLGVASDVVRKVAQVPLGPECSRAVMKLVYCAHCLGVPGARPCPDYCRNVLKGCLANQADLDAEWRNLLDSMVLITDKFWGTSGVESVIGSVHTWLAEAINALQDNRDTLTAKVIQGCGNPKVNPQGPGPEEKRRRGKLAPRERPPSGTLEKLVSEAKAQLRDVQDFWISLPGTLCSEKMALSTASDDRCWNGMARGRYLPEVMGDGLANQINNPEVEVDITKPDMTIRQQIMQLKIMTNRLRSAYNGNDVDFQDASDDGSGSGSGDGCLDDLCSRKVSRKSSSSRTPLTHALPGLSEQEGQKTSAAS
modifications: bait human Fc-tagged dimer
B9: ADP373 (protein)
chain: MAKASCLPLGFIVFLPAVLLLVAPPLPAADAAHEFTVYRMQQYDLQGQPYGTRNAVLNTEARTMAAEVLSRRCVLMRLLDFSYEQYQKALRQSAGAVVIILPRAMAAVPQDVVRQFMEIEPEMLAMETAVPVYFAVEDEALLSIYKQTQAASASQGSASAAEVLLRTATANGFQMVTSGVQSKAVSDWLIASVEGRLTGLGGEDLPTIVIVAHYDAFGVAPWLSLGADSNGSGVSVLLELARLFSRLYTYKRTHAAYNLLFFASGGGKFNYQGTKRWLEDNLDHTDSSLLQDNVAFVLCLDTVGRGSSLHLHVSKPPREGTLQHAFLRELETVAAHQFPEVRFSMVHKRINLAEDVLAWEHERFAIRRLPAFTLSHLESHRDGQRSSIMDVRSRVDSKTLTRNTRIIAEALTRVIYNLTEKGTPPDMPVFTEQMQIQQEQLDSVMDWLTNQPRAAQLVDKDSTFLSTLEHHLSRYLKDVKQHHVKADKRDPEFVFYDQLKQVMNAYRVKP
modifications: bait human Fc-tagged dimer

target: Circumsporozoite protein (CSP) (Plasmodium falciparum (isolate 3D7), UniProt Q7K740); assay: AVEXIS screen signal:noise (double-corrected)
Sequence (Q7K740 19-374): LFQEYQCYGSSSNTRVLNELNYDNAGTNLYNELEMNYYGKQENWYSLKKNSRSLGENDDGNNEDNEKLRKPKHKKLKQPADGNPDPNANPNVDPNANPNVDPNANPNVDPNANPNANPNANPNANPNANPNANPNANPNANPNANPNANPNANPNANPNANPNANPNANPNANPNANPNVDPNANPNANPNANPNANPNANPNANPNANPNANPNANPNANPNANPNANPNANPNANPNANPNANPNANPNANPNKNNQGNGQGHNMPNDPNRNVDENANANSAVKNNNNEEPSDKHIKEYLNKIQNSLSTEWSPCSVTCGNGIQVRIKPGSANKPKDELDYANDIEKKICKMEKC

**Q.** With B1 as the binder, how does the binding score read?
**A.** The binding score was 3.59.

**Q.** Which binding score does the source give for B2 here?
**A.** The binding score was 1.12.

**Q.** For B3, which binding score is on record?
**A.** Its binding score is 0.991.

**Q.** For B4, which binding score is on record?
**A.** The binding score was 0.749.

**Q.** With B5 as the binder, how does the binding score read?
**A.** The binding score was 1.67.

**Q.** How did the binding score turn out when B6 was run?
**A.** Its binding score is 0.68.

**Q.** How did the binding score turn out when B7 was run?
**A.** The binding score was 1.02.

**Q.** With B8 as the binder, how does the binding score read?
**A.** The binding score was 0.883.

**Q.** B9 was tested. Which binding score did it give?
**A.** Its binding score is 1.26.
